From IntAct's records for PubMed 31515488

B1: Cytohesin-4 (Homo sapiens), Q9UIA0 (parent)
chain: MDLCHPEPAELSSGETEELQRIKWHRKQLLEDIQKLKDEIADVFAQIDCFESAEESRMAQKEKELCIGRKKFNMDPAKGIQYFIEHKLLTPDVQDIARFLYKGEGLNKTAIGTYLGERDPINLQVLQAFVDCHEFANLNLVQALRQFLWSFRLPGEAQKIDRMMEAFATRYCLCNPGVFQSTDTCYVLSFSIIMLNTSLHNPNVRDRPPFERFVSMNRGINNGSDLPEDQLRNLFDSIKSEPFSIPEDDGNDLTHTFFNPDREGWLLKLGGRVKTWKRRWFILTDNCLYYFEFTTDKEPRGIIPLENLSVQKVDDPKKPFCLELYNPSCRGQKIKACKTDGDGRVVEGKHESYRISATSAEERDQWIESIRASITRVPFYDLVSTRKKKIASKQ
B2: Probable splicing factor YJU2B (Homo sapiens), P13994 (parent)
chain: MGERKGVNKYYPPDFNPEKHGSLNRYHNSHPLRERARKLSQGILIIRFEMPYNIWCDGCKNHIGMGVRYNAEKKKVGNYYTTPIYRFRMKCHLCVNYIEMQTDPANCDYVIVSGAQRKEERWDMADNEQVLTTEHEKKQKLETDAMFRLEHGEADRSTLKKALPTLSHIQEAQSAWKDDFALNSMLRRRFREKKKAIQEEEERDQALQAKASLTIPLVPETEDDRKLAALLKFHTLDSYEDKQKLKRTEIISRSWFPSAPGSASSSKVSGVLKKLAQSRRTALATSPITVGDLGIVRRRSRDVPESPQHAADTPKSGEPRVPEEAAQDRPMSPGDCPPETTETPKCSSPRGQEGSRQDKPLSPAGSSQEAADTPDTRHPCSLGSSLVADYSDSESE
partner: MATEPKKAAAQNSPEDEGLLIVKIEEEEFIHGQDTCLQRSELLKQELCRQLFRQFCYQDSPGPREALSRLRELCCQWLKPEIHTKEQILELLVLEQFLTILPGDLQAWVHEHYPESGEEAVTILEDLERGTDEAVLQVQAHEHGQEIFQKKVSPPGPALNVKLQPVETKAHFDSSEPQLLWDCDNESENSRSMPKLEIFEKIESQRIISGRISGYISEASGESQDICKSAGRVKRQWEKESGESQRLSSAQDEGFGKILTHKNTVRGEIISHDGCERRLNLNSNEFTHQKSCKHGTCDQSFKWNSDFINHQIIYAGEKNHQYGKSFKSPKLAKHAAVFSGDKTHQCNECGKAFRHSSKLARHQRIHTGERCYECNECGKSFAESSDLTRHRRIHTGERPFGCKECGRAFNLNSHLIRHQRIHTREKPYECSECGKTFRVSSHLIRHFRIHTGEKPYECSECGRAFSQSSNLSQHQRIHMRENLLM
B3: Proteasome subunit beta type-1 (Homo sapiens), P20618 (parent)
chain: MLSSTAMYSAPGRDLGMEPHRAAGPLQLRFSPYVFNGGTILAIAGEDFAIVASDTRLSEGFSIHTRDSPKCYKLTDKTVIGCSGFHGDCLTLTKIIEARLKMYKHSNNKAMTTGAIAAMLSTILYSRRFFPYYVYNIIGGLDEEGKGAVYSFDPVGSYQRDSFKAGGSASAMLQPLLDNQVGFKNMQNVEHVPLSLDRAMRLVKDVFISAAERDVYTGDALRICIVTKEGIREETVSLRKD
partner: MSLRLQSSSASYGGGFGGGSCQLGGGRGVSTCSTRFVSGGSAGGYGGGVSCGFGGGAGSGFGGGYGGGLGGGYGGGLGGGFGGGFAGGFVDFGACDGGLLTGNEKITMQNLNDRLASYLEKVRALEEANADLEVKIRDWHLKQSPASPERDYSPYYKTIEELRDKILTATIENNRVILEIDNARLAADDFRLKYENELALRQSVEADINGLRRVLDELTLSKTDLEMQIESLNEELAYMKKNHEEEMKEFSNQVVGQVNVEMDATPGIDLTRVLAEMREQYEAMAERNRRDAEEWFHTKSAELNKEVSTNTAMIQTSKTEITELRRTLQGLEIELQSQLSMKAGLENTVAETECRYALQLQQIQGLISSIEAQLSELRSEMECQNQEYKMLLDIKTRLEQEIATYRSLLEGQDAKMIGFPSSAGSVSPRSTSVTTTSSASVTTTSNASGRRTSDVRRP
B4: Protein Tob1 (Homo sapiens), P50616 (parent)
chain: MQLEIQVALNFIISYLYNKLPRRRVNIFGEELERLLKKKYEGHWYPEKPYKGSGFRCIHIGEKVDPVIEQASKESGLDIDDVRGNLPQDLSVWIDPFEVSYQIGEKGPVKVLYVDDNNENGCELDKEIKNSFNPEAQVFMPISDPASSVSSSPSPPFGHSAAVSPTFMPRSTQPLTFTTATFAATKFGSTKMKNSGRSNKVARTSPINLGLNVNDLLKQKAISSSMHSLYGLGLGSQQQPQQQQQPAQPPPPPPPPQQQQQQKTSALSPNAKEFIFPNMQGQGSSTNGMFPGDSPLNLSPLQYSNAFDVFAAYGGLNEKSFVDGLNFSLNNMQYSNQQFQPVMAN
B5: Zyxin (Homo sapiens), Q15942 (parent)
chain: MAAPRPSPAISVSVSAPAFYAPQKKFGPVVAPKPKVNPFRPGDSEPPPAPGAQRAQMGRVGEIPPPPPEDFPLPPPPLAGDGDDAEGALGGAFPPPPPPIEESFPPAPLEEEIFPSPPPPPEEEGGPEAPIPPPPQPREKVSSIDLEIDSLSSLLDDMTKNDPFKARVSSGYVPPPVATPFSSKSSTKPAAGGTAPLPPWKSPSSSQPLPQVPAPAQSQTQFHVQPQPQPKPQVQLHVQSQTQPVSLANTQPRGPPASSPAPAPKFSPVTPKFTPVASKFSPGAPGGSGSQPNQKLGHPEALSAGTGSPQPPSFTYAQQREKPRVQEKQHPVPPPAQNQNQVRSPGAPGPLTLKEVEELEQLTQQLMQDMEHPQRQNVAVNELCGRCHQPLARAQPAVRALGQLFHIACFTCHQCAQQLQGQQFYSLEGAPYCEGCYTDTLEKCNTCGEPITDRMLRATGKAYHPHCFTCVVCARPLEGTSFIVDQANRPHCVPDYHKQYAPRCSVCSEPIMPEPGRDETVRVVALDKNFHMKCYKCEDCGKPLSIEADDNGCFPLDGHVLCRKCHTARAQT
partner: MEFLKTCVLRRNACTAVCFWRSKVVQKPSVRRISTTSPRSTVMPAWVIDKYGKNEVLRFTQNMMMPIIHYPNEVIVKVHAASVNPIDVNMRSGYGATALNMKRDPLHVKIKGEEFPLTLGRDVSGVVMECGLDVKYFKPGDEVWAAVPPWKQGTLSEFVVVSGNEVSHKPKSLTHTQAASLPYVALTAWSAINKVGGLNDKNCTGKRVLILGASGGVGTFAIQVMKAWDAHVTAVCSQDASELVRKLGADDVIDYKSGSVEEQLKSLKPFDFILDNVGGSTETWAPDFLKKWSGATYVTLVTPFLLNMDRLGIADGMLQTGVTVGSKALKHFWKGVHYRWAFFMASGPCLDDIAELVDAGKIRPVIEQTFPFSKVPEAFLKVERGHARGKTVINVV
B6: 5-phosphohydroxy-L-lysine phospho-lyase (Homo sapiens), Q8IUZ5 (parent)
chain: MAADQRPKADTLALRQRLISSSCRLFFPEDPVKIVRAQGQYMYDEQGAEYIDCISNVAHVGHCHPLVVQAAHEQNQVLNTNSRYLHDNIVDYAQRLSETLPEQLCVFYFLNSGSEANDLALRLARHYTGHQDVVVLDHAYHGHLSSLIDISPYKFRNLDGQKEWVHVAPLPDTYRGPYREDHPNPAMAYANEVKRVVSSAQEKGRKIAAFFAESLPSVGGQIIPPAGYFSQVAEHIRKAGGVFVADEIQVGFGRVGKHFWAFQLQGKDFVPDIVTMGKSIGNGHPVACVAATQPVARAFEATGVEYFNTFGGSPVSCAVGLAVLNVLEKEQLQDHATSVGSFLMQLLGQQKIKHPIVGDVRGVGLFIGVDLIKDEATRTPATEEAAYLVSRLKENYVLLSTDGPGRNILKFKPPMCFSLDNARQVVAKLDAILTDMEEKVRSCETLRLQP
partner: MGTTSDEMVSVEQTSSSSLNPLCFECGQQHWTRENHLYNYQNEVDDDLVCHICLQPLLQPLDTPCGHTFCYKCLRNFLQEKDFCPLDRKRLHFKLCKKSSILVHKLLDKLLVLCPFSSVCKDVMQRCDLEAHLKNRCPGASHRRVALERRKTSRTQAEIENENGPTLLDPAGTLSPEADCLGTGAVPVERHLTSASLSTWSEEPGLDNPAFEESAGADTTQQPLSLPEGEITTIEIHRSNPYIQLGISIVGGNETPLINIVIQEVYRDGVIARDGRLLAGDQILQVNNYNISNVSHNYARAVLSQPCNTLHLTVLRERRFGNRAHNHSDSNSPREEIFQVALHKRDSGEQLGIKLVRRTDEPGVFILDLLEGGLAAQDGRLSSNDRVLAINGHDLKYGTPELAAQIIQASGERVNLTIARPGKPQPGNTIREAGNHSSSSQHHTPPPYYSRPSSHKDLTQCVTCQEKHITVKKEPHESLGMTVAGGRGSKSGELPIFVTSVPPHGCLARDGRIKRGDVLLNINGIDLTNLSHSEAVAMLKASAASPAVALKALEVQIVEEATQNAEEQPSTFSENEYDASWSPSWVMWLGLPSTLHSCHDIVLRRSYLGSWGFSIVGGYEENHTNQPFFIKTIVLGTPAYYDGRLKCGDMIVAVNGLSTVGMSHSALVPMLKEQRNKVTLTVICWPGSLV
B7: Four and a half LIM domains protein 2 (Homo sapiens), Q14192 (parent)
chain: MTERFDCHHCNESLFGKKYILREESPYCVVCFETLFANTCEECGKPIGCDCKDLSYKDRHWHEACFHCSQCRNSLVDKPFAAKEDQLLCTDCYSNEYSSKCQECKKTIMPGTRKMEYKGSSWHETCFICHRCQQPIGTKSFIPKDNQNFCVPCYEKQHAMQCVQCKKPITTGGVTYREQPWHKECFVCTACRKQLSGQRFTARDDFAYCLNCFCDLYAKKCAGCTNPISGLGGTKYISFEERQWHNDCFNCKKCSLSLVGRGFLTERDDILCPDCGKDI
partner: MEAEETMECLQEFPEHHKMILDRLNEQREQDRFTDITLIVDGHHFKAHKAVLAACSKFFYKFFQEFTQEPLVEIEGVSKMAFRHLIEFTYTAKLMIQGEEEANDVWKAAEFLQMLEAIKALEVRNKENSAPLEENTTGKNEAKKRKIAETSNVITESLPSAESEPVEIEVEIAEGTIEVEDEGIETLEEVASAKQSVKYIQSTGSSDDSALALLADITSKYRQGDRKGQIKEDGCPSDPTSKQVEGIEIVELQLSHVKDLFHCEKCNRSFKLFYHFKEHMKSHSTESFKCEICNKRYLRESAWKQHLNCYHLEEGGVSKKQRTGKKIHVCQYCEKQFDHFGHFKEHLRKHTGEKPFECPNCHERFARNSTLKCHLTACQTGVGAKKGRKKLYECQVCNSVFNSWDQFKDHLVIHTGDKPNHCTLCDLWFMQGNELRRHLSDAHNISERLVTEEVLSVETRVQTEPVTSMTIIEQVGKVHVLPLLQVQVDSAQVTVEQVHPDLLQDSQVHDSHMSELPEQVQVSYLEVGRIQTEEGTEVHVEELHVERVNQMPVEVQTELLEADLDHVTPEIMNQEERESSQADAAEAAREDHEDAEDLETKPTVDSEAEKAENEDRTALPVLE
B8: Ubiquitin-conjugating enzyme E2 E3 (Homo sapiens), Q969T4 (parent)
chain: MSSDRQRSDDESPSTSSGSSDADQRDPAAPEPEEQEERKPSATQQKKNTKLSSKTTAKLSTSAKRIQKELAEITLDPPPNCSAGPKGDNIYEWRSTILGPPGSVYEGGVFFLDITFSSDYPFKPPKVTFRTRIYHCNINSQGVICLDILKDNWSPALTISKVLLSICSLLTDCNPADPLVGSIATQYLTNRAEHDRIARQWTKRYAT
partner: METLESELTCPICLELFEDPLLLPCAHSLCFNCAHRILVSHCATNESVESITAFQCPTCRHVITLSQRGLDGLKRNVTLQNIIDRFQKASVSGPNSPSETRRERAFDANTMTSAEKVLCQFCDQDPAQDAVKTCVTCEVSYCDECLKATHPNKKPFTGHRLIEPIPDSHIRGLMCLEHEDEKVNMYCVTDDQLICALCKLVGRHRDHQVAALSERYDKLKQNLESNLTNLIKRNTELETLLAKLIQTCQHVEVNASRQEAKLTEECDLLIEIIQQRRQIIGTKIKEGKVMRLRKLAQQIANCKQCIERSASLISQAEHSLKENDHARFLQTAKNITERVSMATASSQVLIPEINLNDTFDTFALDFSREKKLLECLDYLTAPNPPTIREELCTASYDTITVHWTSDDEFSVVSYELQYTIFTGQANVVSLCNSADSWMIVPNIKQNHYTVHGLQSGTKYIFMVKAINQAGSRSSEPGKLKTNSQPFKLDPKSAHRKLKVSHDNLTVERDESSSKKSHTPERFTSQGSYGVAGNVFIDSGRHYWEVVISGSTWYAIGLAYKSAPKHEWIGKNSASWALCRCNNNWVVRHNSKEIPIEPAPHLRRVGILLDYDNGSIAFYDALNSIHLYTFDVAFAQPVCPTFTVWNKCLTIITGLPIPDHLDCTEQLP

Variants of: B1
Conditions: with fos_human FOS

Row | Variant | effect of a mutation on the interaction
1 | A9T | with no effect
2 | M74V | with no effect

Variants of: B2
Conditions: with zn165_human ZNF165, P49910

Row | Variant | effect of a mutation on the interaction
3 | S22C | with no effect

Variants of: B3
Conditions: with KRT13, P13646

Row | Variant | effect of a mutation on the interaction
4 | P11A | with no effect

Variants of: B4
Conditions: with cnot7_human CNOT7, Q9UIV1
Chain of cnot7_human CNOT7, Q9UIV1 (Q9UIV1 whole entry): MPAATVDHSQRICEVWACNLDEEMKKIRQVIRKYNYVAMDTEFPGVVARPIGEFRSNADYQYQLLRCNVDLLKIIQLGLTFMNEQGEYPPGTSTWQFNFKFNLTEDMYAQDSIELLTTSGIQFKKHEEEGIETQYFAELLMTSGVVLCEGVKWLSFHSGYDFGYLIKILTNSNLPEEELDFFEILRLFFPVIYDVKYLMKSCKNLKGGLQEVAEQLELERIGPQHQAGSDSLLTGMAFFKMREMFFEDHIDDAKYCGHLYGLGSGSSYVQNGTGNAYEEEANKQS

Row | Variant | effect of a mutation on the interaction
5 | Y50N | with no effect

Variants of: B5
Conditions: with rt4i1_human RTN4IP1, Q8WWV3

Row | Variant | effect of a mutation on the interaction
6 | R489W | with no effect
7 | R563Q | with no effect

Variants of: B6
Conditions: with lnx2_human LNX2, Q8N448

Row | Variant | effect of a mutation on the interaction
8 | H126R | with no effect

Variants of: B7
Conditions: with zn131_human ZNF131, P52739

Row | Variant | effect of a mutation on the interaction
9 | N95K | with no effect
10 | A37S | with no effect

Variants of: B8
Conditions: with tri18_human MID1, O15344

Row | Variant | effect of a mutation on the interaction
11 | S117T | with no effect
